For two substances, Ka results are on record in PMC6126693.

In the data set the test system is ZIC2 zinc finger domains (five ZnF). The data set is described as follows: ITC. As to conditions: ITC: 300 mM NaCl, 50 mM potassium phosphate, pH 8.0, 25 C, EMSA: binding buffer not specified, 30 min 37 C, 6% PAGE 1x TBE 4 C. (In EMSA bound probe runs differently from free probe, usually more slowly.)

Take antisense PCAT92 RNA: the Ka (RNA 60 uM into protein 5 uM) amounted to 1e+06 M⁻¹. “sense PCAT92 RNA (predicted ZIC2-binding region)” returned a Ka of 1e+09 M⁻¹.
